Assay results published in patent US20090226444A1 (MICROMET, published 2009).
Where a chain is given by its changes, count along the chain named.

T1: soluble human CEA antigen (sCEA; Abcam, Ltd, Cambridge UK) (human, UniProt P06731 35-685, limits assumed)
T1 construct: Bought soluble CEA; also called soluble CEA; immobilized CEA antigen
T1 sequence: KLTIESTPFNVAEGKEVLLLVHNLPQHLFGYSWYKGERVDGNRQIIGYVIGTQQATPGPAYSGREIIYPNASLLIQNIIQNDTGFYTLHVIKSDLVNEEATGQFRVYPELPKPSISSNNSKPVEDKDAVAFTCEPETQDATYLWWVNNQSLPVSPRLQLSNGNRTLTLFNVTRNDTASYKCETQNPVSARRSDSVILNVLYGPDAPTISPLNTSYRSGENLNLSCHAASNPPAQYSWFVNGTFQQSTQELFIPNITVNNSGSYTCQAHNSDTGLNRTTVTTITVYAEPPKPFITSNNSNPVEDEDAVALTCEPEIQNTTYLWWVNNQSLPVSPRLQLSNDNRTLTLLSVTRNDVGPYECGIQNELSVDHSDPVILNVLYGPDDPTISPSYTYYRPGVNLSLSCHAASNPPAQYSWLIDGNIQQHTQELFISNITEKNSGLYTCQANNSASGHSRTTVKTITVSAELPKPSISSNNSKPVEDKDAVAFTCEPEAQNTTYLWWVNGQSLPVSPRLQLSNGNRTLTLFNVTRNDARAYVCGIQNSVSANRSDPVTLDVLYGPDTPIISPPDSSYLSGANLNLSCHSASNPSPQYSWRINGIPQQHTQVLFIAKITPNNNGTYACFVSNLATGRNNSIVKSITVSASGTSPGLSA

T2: human CEA (carcinoembryonic antigen-related cell adhesion molecule 5; CEACAM5), membrane-bound on cells (human, UniProt P06731 35-685)
T2 sequence: T1 sequence

B1: murine monoclonal antibody A5B7 (antibody, V domains shown)
VH: EVQLVESGGGLVQPGGSLRLSCATSGFTFTDYYMNWVRQPPGKALEWLGFIGNKANGYTTEYSASVKGRFTISRDKSQSILYLQMNTLRAEDSATYYCTRDRGLRFYFDYWGQGTTVTVSS
VL: DIELTQSPAILSASPGEKVTMTCRASSSVTYIHWYQQKPGSSPKSWIYATSNLASGVPARFSGSGSGTSYSLTISRVEAEDAATYYCQHWSSKPPTFGGGTKLEIK
notes: The parental murine monoclonal; also called mAb A5B7
B2: IgG1 A5, derived from scFv A5 (antibody, V domains shown)
VH: EVQLVESGGGVVQPGRSLRLSCAASGFTLSTYAMHWVRQAPGKGLEWVALISNDGSNKYYADSVKGRFTISRDNSKNTLYLQMNSLRAEDTAVYYCARDRGLRFYFDYWGQGTTVTVSS
VL: QAVLTQPASLSASPGASASLTCTLRRGINVGAYSIYWYQQKPGSPPQYLLRYKSDSDKQQGSGVSSRFSASKDASANAGILLISGLQSEDEADYYCMIWHSGASAVFGGGTKLTVLG
B3: IgG1 B9, derived from scFv B9 (antibody, V domains shown)
VH: EVQLVESGGGLVQPGRSLRLSCAASGFTVSSYWMHWVRQAPGKGLEWVGFIRNKANGGTTEYAASVKGRFTISRDDSKNTLYLQMNSLRAEDTAVYYCARDRGLRFYFDYWGQGTTVTVSS
VL: B2 VL
B4: IgG1 D8, derived from scFv D8 (antibody, V domains shown)
VH: B2 VH with A97T
VL: B2 VL

What was measured:
[1] = biological target: T1, soluble human CEA antigen (sCEA; Abcam, …); assay: not described (own data)
[2] = biological target: T2, human CEA (carcinoembryonic …); assay: cell-based or functional assay
[3] = biological target: T1, soluble human CEA antigen (sCEA; Abcam, …); assay: cell-based or functional assay

Binder	binding result [1]	ADCC EC50, sCEA 0 ug/ml [2] [ng/mL]	ADCC EC50 in the presence of sCEA 1 ug/ml [2] [ng/mL]	ADCC EC50 in the presence of sCEA 10 ug/ml [2] [ng/mL]	Inhibitory factor (ADCC EC50 with 1 ug/ml sCEA divided by EC50 without sCEA) [3] [fold]	Inhibitory factor (ADCC EC50 with 10 ug/ml sCEA divided by EC50 without sCEA) [3] [fold]
B1	binds	–	–	–	–	–
B2	–	2.7	4	2.8	1.5	1
B3	–	4.8	45.3	53.4	9.4	11.1
B4	–	4.4	14.7	6.3	3.3	1.4
